Target: Recombinant α2β1 integrin (UniProt P17301)
Assay: ELISA

Recombinant α2β1 integrin, sequence (P17301 30-1181, chain 1 of 2): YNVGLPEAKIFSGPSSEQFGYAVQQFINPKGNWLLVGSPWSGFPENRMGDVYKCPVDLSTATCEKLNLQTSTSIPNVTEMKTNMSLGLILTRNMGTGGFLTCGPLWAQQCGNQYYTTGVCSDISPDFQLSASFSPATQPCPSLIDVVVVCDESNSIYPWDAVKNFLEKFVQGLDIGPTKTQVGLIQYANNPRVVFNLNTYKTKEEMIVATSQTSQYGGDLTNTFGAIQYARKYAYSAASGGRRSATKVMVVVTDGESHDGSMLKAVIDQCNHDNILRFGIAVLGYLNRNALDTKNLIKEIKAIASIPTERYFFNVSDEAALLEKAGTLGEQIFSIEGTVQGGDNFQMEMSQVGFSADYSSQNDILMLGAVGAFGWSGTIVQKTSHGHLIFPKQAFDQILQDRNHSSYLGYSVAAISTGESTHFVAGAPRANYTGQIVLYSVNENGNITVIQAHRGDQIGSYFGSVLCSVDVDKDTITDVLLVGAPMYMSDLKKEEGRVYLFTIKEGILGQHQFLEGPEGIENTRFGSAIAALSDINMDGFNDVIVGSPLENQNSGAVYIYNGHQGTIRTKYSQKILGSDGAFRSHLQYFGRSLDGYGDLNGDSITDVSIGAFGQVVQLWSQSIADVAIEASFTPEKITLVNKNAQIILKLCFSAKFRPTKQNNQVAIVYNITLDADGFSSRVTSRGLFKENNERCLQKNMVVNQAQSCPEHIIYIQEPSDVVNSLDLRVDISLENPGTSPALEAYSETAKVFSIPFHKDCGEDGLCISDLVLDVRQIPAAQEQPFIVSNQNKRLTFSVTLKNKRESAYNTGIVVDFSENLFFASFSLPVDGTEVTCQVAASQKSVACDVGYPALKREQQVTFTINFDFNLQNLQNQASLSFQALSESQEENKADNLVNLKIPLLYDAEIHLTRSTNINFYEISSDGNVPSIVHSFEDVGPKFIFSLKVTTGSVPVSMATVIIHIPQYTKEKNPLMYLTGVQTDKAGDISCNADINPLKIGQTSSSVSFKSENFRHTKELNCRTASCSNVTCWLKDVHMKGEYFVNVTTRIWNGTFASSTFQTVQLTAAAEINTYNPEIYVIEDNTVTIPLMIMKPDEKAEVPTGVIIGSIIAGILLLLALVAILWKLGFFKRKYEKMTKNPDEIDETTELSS
Recombinant α2β1 integrin, sequence (P05556 21-798, chain 2 of 2, further chain): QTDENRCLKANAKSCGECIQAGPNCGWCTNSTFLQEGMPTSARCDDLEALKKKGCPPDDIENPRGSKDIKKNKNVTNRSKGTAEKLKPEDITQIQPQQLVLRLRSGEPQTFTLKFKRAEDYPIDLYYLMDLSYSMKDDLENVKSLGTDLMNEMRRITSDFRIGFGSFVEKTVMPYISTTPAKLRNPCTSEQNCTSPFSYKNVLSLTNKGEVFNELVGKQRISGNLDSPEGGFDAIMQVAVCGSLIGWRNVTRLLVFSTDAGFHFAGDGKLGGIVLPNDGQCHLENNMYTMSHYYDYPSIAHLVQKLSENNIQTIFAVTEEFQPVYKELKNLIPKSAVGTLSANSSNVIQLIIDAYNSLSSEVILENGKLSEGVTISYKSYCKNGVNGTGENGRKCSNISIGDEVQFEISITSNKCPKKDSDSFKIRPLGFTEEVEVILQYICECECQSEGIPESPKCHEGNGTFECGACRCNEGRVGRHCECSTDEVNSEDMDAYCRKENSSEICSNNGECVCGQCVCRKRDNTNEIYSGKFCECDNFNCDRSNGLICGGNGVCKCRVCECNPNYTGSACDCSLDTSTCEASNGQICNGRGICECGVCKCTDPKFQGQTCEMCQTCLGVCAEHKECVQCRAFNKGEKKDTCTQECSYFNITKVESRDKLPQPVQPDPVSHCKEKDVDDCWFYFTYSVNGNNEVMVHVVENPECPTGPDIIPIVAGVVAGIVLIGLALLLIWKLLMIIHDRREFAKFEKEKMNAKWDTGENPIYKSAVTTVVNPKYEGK

Biotinylated collagen type I (from UniProt P02453;P02465) (natural protein)
Kd: 1.5 nM

Reference: paper PMC3431625
